T1: Human PTK7/CCK4 Protein, His Tag, Acro Biosystems PT7-H52H3 (human, UniProt Q13308 31-704)
T1 construct: bought protein; also called Human PTK7 Protein, His Tag, Acro Biosystems; not shown: His tag
T1 sequence: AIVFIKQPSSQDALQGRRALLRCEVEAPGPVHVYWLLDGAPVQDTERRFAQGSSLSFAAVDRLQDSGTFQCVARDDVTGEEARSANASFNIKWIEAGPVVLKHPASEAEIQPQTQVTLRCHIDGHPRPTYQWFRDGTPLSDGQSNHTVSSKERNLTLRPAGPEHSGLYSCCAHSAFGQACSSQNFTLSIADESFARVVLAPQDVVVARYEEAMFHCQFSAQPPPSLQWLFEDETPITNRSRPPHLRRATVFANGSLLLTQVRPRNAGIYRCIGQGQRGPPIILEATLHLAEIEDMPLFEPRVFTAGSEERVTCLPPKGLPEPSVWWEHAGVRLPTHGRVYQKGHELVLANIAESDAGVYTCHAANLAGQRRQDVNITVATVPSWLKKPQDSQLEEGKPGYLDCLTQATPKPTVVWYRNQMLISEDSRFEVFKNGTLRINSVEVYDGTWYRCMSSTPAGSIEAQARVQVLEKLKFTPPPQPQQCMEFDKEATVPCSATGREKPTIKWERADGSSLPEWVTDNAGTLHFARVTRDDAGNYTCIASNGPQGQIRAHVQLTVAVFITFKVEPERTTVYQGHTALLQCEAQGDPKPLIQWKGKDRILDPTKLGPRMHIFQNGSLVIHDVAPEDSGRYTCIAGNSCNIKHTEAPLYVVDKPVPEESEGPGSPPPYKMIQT

B1: MYT10888 (antibody, V domains shown)
VH: EVQLVESGGGLVQPGGSLRLSCTASGFSHSNYVMNWVRQAPGKGLEWVGIIDSSGSTYYASWAKGRFTISRDTSKNTVYLQMNSLRAEDTAVYFCARGLYLWGQGTLVTVSS
VL: EIVMTQSPSTLSASVGDRVIITCQSSQSVYNNNLLAWYQQKPGKAPKLLIYYTSNLASGVPSRFSGSGSGAEFTLTISSLQPDDFATYYCQGGYNGNIYAFGQGTKLTVL
notes: IgG
B2: MYT10930 (antibody, V domains shown)
VH: EVQLVESGGGLVQPGGSLRLSCTASGFSLSNYVMNWVRQAPGKGLEWVGIIDSSGSTYYASWAKGRFTISRDTSKNTVYLQMNSLRAEDTAVYFCARGLYLWGQGTLVTVSS
VL: EIVMTQSPSTLSASVGDRVIITCQSSQSVYNNNLHAWYQQKPGKAPKLLIYYTSNLASGVPSRFSGSGSGAEFTLTISSLQPDDFATYYCQGGYNGNIYAFGQGTKLTVL
notes: IgG
B3: MYT10896 (antibody, V domains shown)
VH: EVQLVESGGGLVQPGGSLRLSCTASGFSLSNYVMNWVRQAPGKGLEWVGIHDSSGSTYYASWAKGRFTISRDTSKNTVYLQMNSLRAEDTAVYFCARGLYLWGQGTLVTVSS
VL: EIVMTQSPSTLSASVGDRVIITCQSSQSVYNNNLLAWYQQKPGKAPKLLIYYTSNLASGVPSRFSGSGSGAEFTLTISSLQPDDFATYYCQGGYNGNIYAFGQGTKLTVL
notes: IgG
B4: MYT10936 (antibody, V domains shown)
VH: EVQLVESGGGLVQPGGSLRLSCTASGFSLSNYVMNWVRQAPGKGLEWVGIIDSSGSTYYASWAKGRFTISRDTSKNTVYLQMNSLRAEDTAVYFCARGLYLWGQGTLVTVSS
VL: EIVMTQSPSTLSASVGDRVIITCQSSQSVYNNNLLAWYQQKPGKAPKLLIYYTSNHASGVPSRFSGSGSGAEFTLTISSLQPDDFATYYCQGGYNGNIYAFGQGTKLTVL
notes: IgG
B5: MYT10895 (antibody, V domains shown)
VH: EVQLVESGGGLVQPGGSLRLSCTASGFSLSNYVMNWVRQAPGKGLEWVGHIDSSGSTYYASWAKGRFTISRDTSKNTVYLQMNSLRAEDTAVYFCARGLYLWGQGTLVTVSS
VL: EIVMTQSPSTLSASVGDRVIITCQSSQSVYNNNLLAWYQQKPGKAPKLLIYYTSNLASGVPSRFSGSGSGAEFTLTISSLQPDDFATYYCQGGYNGNIYAFGQGTKLTVL
notes: IgG
B6: MYT10889 (antibody, V domains shown)
VH: EVQLVESGGGLVQPGGSLRLSCTASGFSLHNYVMNWVRQAPGKGLEWVGIIDSSGSTYYASWAKGRFTISRDTSKNTVYLQMNSLRAEDTAVYFCARGLYLWGQGTLVTVSS
VL: EIVMTQSPSTLSASVGDRVIITCQSSQSVYNNNLLAWYQQKPGKAPKLLIYYTSNLASGVPSRFSGSGSGAEFTLTISSLQPDDFATYYCQGGYNGNIYAFGQGTKLTVL
notes: IgG
B7: MYT10935 (antibody, V domains shown)
VH: EVQLVESGGGLVQPGGSLRLSCTASGFSLSNYVMNWVRQAPGKGLEWVGIIDSSGSTYYASWAKGRFTISRDTSKNTVYLQMNSLRAEDTAVYFCARGLYLWGQGTLVTVSS
VL: EIVMTQSPSTLSASVGDRVIITCQSSQSVYNNNLLAWYQQKPGKAPKLLIYYTSHLASGVPSRFSGSGSGAEFTLTISSLQPDDFATYYCQGGYNGNIYAFGQGTKLTVL
notes: IgG
B8: MYT10911 (antibody, V domains shown)
VH: EVQLVESGGGLVQPGGSLRLSCTASGFSLSNYVMNWVRQAPGKGLEWVGIIDSSGSTYYASWAKGRFTISRDTSKNTVYLQMNSLRAEDTAVYFCHRGLYLWGQGTLVTVSS
VL: EIVMTQSPSTLSASVGDRVIITCQSSQSVYNNNLLAWYQQKPGKAPKLLIYYTSNLASGVPSRFSGSGSGAEFTLTISSLQPDDFATYYCQGGYNGNIYAFGQGTKLTVL
notes: IgG
B9: MYT10925 (antibody, V domains shown)
VH: EVQLVESGGGLVQPGGSLRLSCTASGFSLSNYVMNWVRQAPGKGLEWVGIIDSSGSTYYASWAKGRFTISRDTSKNTVYLQMNSLRAEDTAVYFCARGLYLWGQGTLVTVSS
VL: EIVMTQSPSTLSASVGDRVIITCQSSQSVHNNNLLAWYQQKPGKAPKLLIYYTSNLASGVPSRFSGSGSGAEFTLTISSLQPDDFATYYCQGGYNGNIYAFGQGTKLTVL
notes: IgG
B10: MYT10928 (antibody, V domains shown)
VH: EVQLVESGGGLVQPGGSLRLSCTASGFSLSNYVMNWVRQAPGKGLEWVGIIDSSGSTYYASWAKGRFTISRDTSKNTVYLQMNSLRAEDTAVYFCARGLYLWGQGTLVTVSS
VL: EIVMTQSPSTLSASVGDRVIITCQSSQSVYNNHLLAWYQQKPGKAPKLLIYYTSNLASGVPSRFSGSGSGAEFTLTISSLQPDDFATYYCQGGYNGNIYAFGQGTKLTVL
notes: IgG
B11: MYT10927 (antibody, V domains shown)
VH: EVQLVESGGGLVQPGGSLRLSCTASGFSLSNYVMNWVRQAPGKGLEWVGIIDSSGSTYYASWAKGRFTISRDTSKNTVYLQMNSLRAEDTAVYFCARGLYLWGQGTLVTVSS
VL: EIVMTQSPSTLSASVGDRVIITCQSSQSVYNHNLLAWYQQKPGKAPKLLIYYTSNLASGVPSRFSGSGSGAEFTLTISSLQPDDFATYYCQGGYNGNIYAFGQGTKLTVL
notes: IgG
B12: MYT10916 (antibody, V domains shown)
VH: EVQLVESGGGLVQPGGSLRLSCTASGFSLSNYVMNWVRQAPGKGLEWVGIIDSSGSTYYASWAKGRFTISRDTSKNTVYLQMNSLRAEDTAVYFCARGLYHWGQGTLVTVSS
VL: EIVMTQSPSTLSASVGDRVIITCQSSQSVYNNNLLAWYQQKPGKAPKLLIYYTSNLASGVPSRFSGSGSGAEFTLTISSLQPDDFATYYCQGGYNGNIYAFGQGTKLTVL
notes: IgG
B13: MYT10897 (antibody, V domains shown)
VH: EVQLVESGGGLVQPGGSLRLSCTASGFSLSNYVMNWVRQAPGKGLEWVGIIHSSGSTYYASWAKGRFTISRDTSKNTVYLQMNSLRAEDTAVYFCARGLYLWGQGTLVTVSS
VL: EIVMTQSPSTLSASVGDRVIITCQSSQSVYNNNLLAWYQQKPGKAPKLLIYYTSNLASGVPSRFSGSGSGAEFTLTISSLQPDDFATYYCQGGYNGNIYAFGQGTKLTVL
notes: IgG
B14: MYT10891 (antibody, V domains shown)
VH: EVQLVESGGGLVQPGGSLRLSCTASGFSLSNHVMNWVRQAPGKGLEWVGIIDSSGSTYYASWAKGRFTISRDTSKNTVYLQMNSLRAEDTAVYFCARGLYLWGQGTLVTVSS
VL: EIVMTQSPSTLSASVGDRVIITCQSSQSVYNNNLLAWYQQKPGKAPKLLIYYTSNLASGVPSRFSGSGSGAEFTLTISSLQPDDFATYYCQGGYNGNIYAFGQGTKLTVL
notes: IgG
B15: MYT10920 (antibody, V domains shown)
VH: EVQLVESGGGLVQPGGSLRLSCTASGFSLSNYVMNWVRQAPGKGLEWVGIIDSSGSTYYASWAKGRFTISRDTSKNTVYLQMNSLRAEDTAVYFCARGLYLWGQGTLVTVSS
VL: EIVMTQSPSTLSASVGDRVIITCQHSQSVYNNNLLAWYQQKPGKAPKLLIYYTSNLASGVPSRFSGSGSGAEFTLTISSLQPDDFATYYCQGGYNGNIYAFGQGTKLTVL
notes: IgG
B16: MYT10905 (antibody, V domains shown)
VH: EVQLVESGGGLVQPGGSLRLSCTASGFSLSNYVMNWVRQAPGKGLEWVGIIDSSGSTYYHSWAKGRFTISRDTSKNTVYLQMNSLRAEDTAVYFCARGLYLWGQGTLVTVSS
VL: EIVMTQSPSTLSASVGDRVIITCQSSQSVYNNNLLAWYQQKPGKAPKLLIYYTSNLASGVPSRFSGSGSGAEFTLTISSLQPDDFATYYCQGGYNGNIYAFGQGTKLTVL
notes: IgG
B17: MYT10937 (antibody, V domains shown)
VH: EVQLVESGGGLVQPGGSLRLSCTASGFSLSNYVMNWVRQAPGKGLEWVGIIDSSGSTYYASWAKGRFTISRDTSKNTVYLQMNSLRAEDTAVYFCARGLYLWGQGTLVTVSS
VL: EIVMTQSPSTLSASVGDRVIITCQSSQSVYNNNLLAWYQQKPGKAPKLLIYYTSNLHSGVPSRFSGSGSGAEFTLTISSLQPDDFATYYCQGGYNGNIYAFGQGTKLTVL
notes: IgG
B18: MYT10926 (antibody, V domains shown)
VH: EVQLVESGGGLVQPGGSLRLSCTASGFSLSNYVMNWVRQAPGKGLEWVGIIDSSGSTYYASWAKGRFTISRDTSKNTVYLQMNSLRAEDTAVYFCARGLYLWGQGTLVTVSS
VL: EIVMTQSPSTLSASVGDRVIITCQSSQSVYHNNLLAWYQQKPGKAPKLLIYYTSNLASGVPSRFSGSGSGAEFTLTISSLQPDDFATYYCQGGYNGNIYAFGQGTKLTVL
notes: IgG
B19: MYT10903 (antibody, V domains shown)
VH: EVQLVESGGGLVQPGGSLRLSCTASGFSLSNYVMNWVRQAPGKGLEWVGIIDSSGSTHYASWAKGRFTISRDTSKNTVYLQMNSLRAEDTAVYFCARGLYLWGQGTLVTVSS
VL: EIVMTQSPSTLSASVGDRVIITCQSSQSVYNNNLLAWYQQKPGKAPKLLIYYTSNLASGVPSRFSGSGSGAEFTLTISSLQPDDFATYYCQGGYNGNIYAFGQGTKLTVL
notes: IgG
B20: MYT10898 (antibody, V domains shown)
VH: EVQLVESGGGLVQPGGSLRLSCTASGFSLSNYVMNWVRQAPGKGLEWVGIIDHSGSTYYASWAKGRFTISRDTSKNTVYLQMNSLRAEDTAVYFCARGLYLWGQGTLVTVSS
VL: EIVMTQSPSTLSASVGDRVIITCQSSQSVYNNNLLAWYQQKPGKAPKLLIYYTSNLASGVPSRFSGSGSGAEFTLTISSLQPDDFATYYCQGGYNGNIYAFGQGTKLTVL
notes: IgG

Molecular target: T1, Human PTK7/CCK4 Protein, His Tag, Acro …
Assay: BLI, antibody on anti-human Fc sensor, 50 nM PTK7

Row | binding result | Binder
1 | binds | B1
2 | binds | B2
3 | binds | B3
4 | binds | B4
5 | binds | B5
6 | binds | B6
7 | binds | B7
8 | binds | B8
9 | binds | B9
10 | binds | B10
11 | binds | B11
12 | binds | B12
13 | binds | B13
14 | binds | B14
15 | binds | B15
16 | binds | B16
17 | binds | B17
18 | binds | B18
19 | binds | B19
20 | binds | B20

— patent US20260209386A1 (MYTHIC THERAPEUTICS, published 2026)
